Data: the nanobody polyreactivity screen of Harvey et al. (2022)

Experiment: yeast display, Sf9 membrane polyspecificity reagent, FACS + sequencing; frameworks hold sequencing errors
Procedure, shortened: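 A nanobody's polyreactivity label depends on the gate it was sorted from. Yeast display cells were stained with 10% biotinylated, detergent-solubilized Sf9 membrane reagent for 1 hour at 4 °C, enriched on streptavidin microbeads and sorted by FACS. The low and high (top ~1%) gates were set on anti-HA fluorescence for expression and streptavidin fluorescence for reagent binding.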

Sequence	polyreactivity (PSR sort gate)
QVQLVESGGGLVQAGGSLRLSCAASGITFFENAMGWYRQAPGKERELVAASSYSGGSTYYADSVKGRFTISRDNAKNTVYLQMYRLKPEDTAVYSCAADWYNFLYIRNRWGYGYWGQGSQVTVSS	high polyreactivity
RVQLQESGGGLVQAGGSLRLSCAASGTIFNRGDMGWYRQAPGKEREFVATIDTGSNTYYADSEKGPFTISRDNAKNAVYLQMNCLKPGATAVYYCVVDYQLSGRLRYWGQGTQVTLSS	low polyreactivity
QVQLVESGGGLVQAGGSLRLSCAASGSIFFINAMGWYRQAPGKERELVAAIRRGGSTYADSVKGRFTISRDNAKNTVYLQMNSLKPEDTAVYYCAARITWGATAKSRYSYLYDYWGQGTQVTVSS	high polyreactivity
QVQLVESGGGLVQAGGSLSLSWAASGSTFFNNAMGWYRQAPGKERELVAGISYGCGRTYYADSVKGRFTISRDNAKNTVFLQMNSLKPEDTAVYYCNTVTSPAPYYSYDRYYWGQGTQVTVSS	high polyreactivity
QVQLVESGGGLVQAGGSLRLSCAASGFTLTSYAMGWYRQAPGKERELVAGISRGGITYYADSVKGRFTISRDNAKNTVYLQMNSLKPEDTAVYYCNARRTRRWPTTPEFTNFGYWGQGTQVTVSS	high polyreactivity
QVQLVESGGCLVQAGGSLRLICASSGFTFRAYAMGWYIKAPGKEREFVAAISRRGGSTSYADSVKGRFTISRDNAKNTVYLQMNSLKPEDTAVYYCAATYQILTTSAHDSWGQGTQVTVSS	high polyreactivity
QVQLVESGGGLVQAGGSLRLSCAASGSTITNYAMGWYRQAPGKERELVAAIRYSGGRTYYADSVKGRFTISRDNANNPGYLQMNSLKPEDTAVYYCAADRASYFTYAYGYWGQGTQVTVSS	high polyreactivity
QVQLVESGGGLVQAGGSLRLSCAASGRTFKSYAMGWNRQAPGQERELVATITRDGRTNYADSVKGRFTISRDNAKNTVYLQLNSLKPEDTAVYYCNADSRYRYDYWGQGTQVTVSS	low polyreactivity
QVQLVESGGGLVQAGGSLRLSCAASGRIFDGYDMGGYRQAPGQEREWVAAITSVGSTNYADSVKGRFTISRDNAKNTVYLQMNSLKPDDTAVYYCAAVLYVFYDDYGYWEYFSQYDYWGQGTQVTVSS	low polyreactivity
QVHLVDSGGGLVQAGGSLRLSCAATGFTFWYYAMGWYRQAPWKERELVATITWNGGSTYYADSVKGRFTISRDNAKNTVYIQMNSLQPEDTAVYYCNKSYISSSSWQYYYWGQGTQVTVSS	low polyreactivity
QVQLVESGGGLVQAGGSLRLSCAASGSIFDPNAMGWYRQAPGKERELVANITNGGRTNYADSVKGRFTISRDNAKNTVYLQMNSLKPEDTAVYYCAKDSPFTSVTVLAPIIYDSWGQGTQVTVSS	low polyreactivity
QVQLVESGGGLVHAGGSLRLSCAASGSILSSYAMGWYRQAPGKERELVAAINSGGSTNYADSVKGRFTISRDNAKNTVYLQMNSLKAEDTAVYYCNADYSYGTTLDYWGQGTHVTVSS	low polyreactivity
QVQLVESGGGLVQAGGSLRLSCAASGFIFDSYAMGWYRQAPGKERELVAAISWSGGRTYYADSVKWRFTISRDNAKNTVYLQMNSLKPEDTAVYYCNVRTKLSTSYDYWGQGTQVTVSS	high polyreactivity
QVQLVESGGGLVQAGGSLRLSCAASGFIFVKYAMGWYIQAPGKERELVAAITTSGTGTFYADSVKGRFTISRDNAKYTVYLQMNRLKPEDTAVYYCNALGHPGDDWGQGTQVTVSS	low polyreactivity
QVQLVESGGGLVQAGGSLRLSCAASGLTFTGYAMGWYRQAPGKERELVAAISSRGGSTYYADSVKGRFTISRDTAKNTVYLQMNRLKPEDTAVYYCNAVVVVGRRDYWGQGTQVTVSS	high polyreactivity
QVQREESGGGLVQAGGSLRLSCAASGITFVLNVMGWYRQAPGKETELLAAISASGGRTYYADSVKGRFTISRDNAKNTVYLQMNSLKPEDTAVYYCNAVLPRYTFRSGVFEYDWGQGTQVTVSS	high polyreactivity
QVQLVESGGGLFQAGGSLRLRWAASGNTFRYYVMGWYRQAPGKERELVADINWSGGRTYYADSVKWGFTISRDNAKNTVYFQMNSLKPEDTAVFYCNAARKLYRYSYDYWGQGTQVTLSS	high polyreactivity
QVQLGESGGGLVQAGGSLRLSCAASGFTFHLYAMGWYRQAPGKERELVAAISQSGDSTYYADSVKGRFTISRDNAKNTVYLQMNSLKPDDTAVYYFNADNDGVVWSYPFDFDYWGQGTQVTVSS	low polyreactivity
QVQLVESGGGLVQAGGSLRLSCAASGGIFGSYAMGWYRQAPGKERELVADITQSGGRTRYADSVKGRFTISRDNAKNTVYLQMNSLKPEDSAVYYCNAQDVDSGDDYDYWGQGTQVTVSS	low polyreactivity
QVQLVESGGCLVQAGGSLRLSCAASGITFVSNVMGWYRQATGKEREFVAAITGRGDTTYADSVKGRFTISRDNAKNTVYLQMNSLKPEDTAVYYCAAEYSVPYRGWDGYEYWGQGTQVTVSS	low polyreactivity
QVQLVESGGGLVQAGGSLRLSCAASAFTFRYNAMGWYRQAPGKERELVATIDWSGGRTYYADSVKGRFTISRDNAKNTVYLQMNSLKPEDTAVYYCNAAALFRYYVRWKSAYDYWGQGTQVTVSS	high polyreactivity
QVQLVESGGGLVQPGGSLRLSWAASGSIFVGYAMGWYRQAPGKERELVAAISTRGGSTYYADSVKGRFTISRDNAKNTVYLQINSLKPEDTAVYYCAADYLDSTYGYVFGWDDYWGQGTLVTVSS	low polyreactivity

Sequence	polyreactivity (PSR sort gate)
QVQLVESGGGLVQAGGSLRLSCAASGSTFLPYGMGWYRQAPGKERELVAAITQRGGSTYYADSVKGRFTISRDNAKNTVYLQMNSLKPEDTAVYYCAARYTGRRRLWTGPGYEYWGQGTQVTVSS	high polyreactivity
QVQLVESGGGLVQAGGSLRLSCAASGITFYYNVMGWYRQAPGKERELVASITSGGSTYYADSVKGRFTISRDNAKNTVYLQMNSLKPEDTAVSYCNKDHALYVDFSYDYWGQGTQVTVSS	low polyreactivity
QVQLVESGGGLVQAGGSLRLSCAASGRIFGVYVMGWYRQAPGKERELVAAISWSGSHTYYADSVKGRFTISRDNAKNTVYLQMNSLKPEDTAVYYCNADSYPDYTGPGLDWYDYWGQGTQVTVSS	low polyreactivity
QVQLVESGGGLVQAGGSLRLSCAASGFTFKRYAMGWYRQAPGKERELVAAISYGGSRTYYADSVKGRFTISRDNAKNTVYLQMNSLKPEDTAVYYCNFRRRTWHYITSMDYWGQGTQVTVSS	high polyreactivity
QVQLVESGGGLVQAGGSLRLSCAASGRTFRSYDMGWYRQAPGKERELVAAISEDGGYTYYADSVKGRFTISRDNAKNSVYLQMNSVKPEDTAVYYCAKDRPGPLRWWFLYGYWGQGTQVTVSS	low polyreactivity
QVQLVESGGGLVQAGGSLRLSCAASGINFKGNAMGWYRQAPGKERELVATISSGGTTNYADSVKGRFTISRDNAKNTVYLQMNSLKPEDTAVYYCAKRGYYRSRRYDYWGQGTQVTVSS	high polyreactivity
QVQLVESGGGLVQAGGSLRLSCAASGLIFYFYAMGWYRQAPGKERELVAAISSRGGRTYYADSVKGRFTISRDNAKNTVYLQMNSLKPEDTAVYYCNVDQLLRRTSAQGDYWGQGTQVTVSS	high polyreactivity
QVQLVESGGGLVQAGGSLRLSCAASGITFGKYAMGWYRQAPGKERELVAAISWSGGSTYYADSVKGRFTISRDNAKNTVYLQMNSLKPEDTAVYYCAASYPYRRGEFYYYRSSDDDYWGQGTQVTVSS	high polyreactivity
QVQLVESGGGLVQAGGSLRLSCAASGLTFVKNAMGLYRQAPRKERELVATISSGGSTNYADSVKGRFTISRDNAKNTVYLQMNSLKPEETAVYYCNKDYTGVLLWIWWDRYDYWGQGTQVTVSS	high polyreactivity
QVQLVESGGGIVQAGGSLRLICDASGLIFTLYAMGWYRQAPGKETELVAAIDDGGRTYYADSVKGRFTISRDNAKNTVYLQMNSMIPEDTAVYYGAAVWLAVYSVWTDHHYDYWGQGTQVTVSS	low polyreactivity
QVQLVESGGGLVQAGGSLRLSCAASGFIFQRYAMGWYRQAPGKESELVAAISSSGGSTYYADSVKGRFTISRDNAKNTVYLQMNSLKPEDTAVNYCAARVPPRTLAYYYWGQGTQVTVSS	high polyreactivity
QVHLVESGGGLVQAGGSLRLSCAASGRIFRGYAMGWYRQAPGKERELVATISWNGGSTYYADSVKGRFTISRDNAKNTVYLQMNSLKPEDTAVYYCNKRYWGGRYGYDYWGQGTQVTVSS	high polyreactivity
QVQLVESGGGLVQAGGSLRLSCAASGITFRSYAMGWYRQAPGKERELVAAITSGASTNYADSVKGRFTISRDNAKNTVYLQMNSLKPEDTAVYYCAATYHTWRGQYLWYDYWGQGTQVTVSS	low polyreactivity
QVQLVESGGGLVQAGGSLRLSCAASGFTLWGYAMGWYRQAPGKERELVATISWSGGGTNYADSVKGRFTISRDNAKNTVYLQMNSLKPEDTAVYYCAAGQGSRNQYYYWGQGTQVTVSS	high polyreactivity
QVQLVESGGGLVQAGGSLRLSCAASGSTFTHYAMGWYRQAPGKERELVAAISSRGGSTYADSVKGRFTISRDNAKNTVYLQMNSLKPEDTAVYYCAARYRLYYYFRFDWGQGTQVTVSS	high polyreactivity
QVQLVESGGGLVQAGGSLRLSCAASGRTFNLYAMGWYRQAPGKERELVAAIRYSDTSTYYADSVKGRFTISRDNAKNTVYLQMNSVKPEDTAVYYCAAYPGYKGGNYGYWGQGTKVTVSS	low polyreactivity
QVQLVESGGGLVQAGGSLRLSCASSGRTFYINAMVWYRQAPGKERELVAAISIRGGRTYYADSVKGRFTISRDNAKNTVYLQMISLKPEDTAVYYCAADYGSLRQRTLYEYWGQGTQVTVSS	low polyreactivity
QVQLVDSGGGLVQAGGSLRLSCAASGGTISSYAMGWYRQAPGKERELVADITRRGGSTYYADSVKGRFTISRDNAKNTVYLQMNSLKPEDTAVYYCAAEWFRQGHRGLDYWGQGTQVTVSS	high polyreactivity
QVQLVESGGGLVQAGASLRLSSAASGSTFSRYAMGWYRQAPGKEREFVADITFRTSSTNYADSVKGRFTISRDNAKNTVYLQMNSLKPEDTAVYDCAADVIFTWLAYSTEYDYWGQGSQVTVSS	low polyreactivity
QVQLVESGGGLVQEGGSLRLSCAASGRISTYYTMGWYRQAPGKERELVAAISWSGTSTYYADSVKGRFTISRDNAKNTVYLQMNSLKPEDTAVYYCNARWRYPLDSVTDDYWGQGTQVTVSS	high polyreactivity
QVQLVESGGGLVQAGGSLRLSCAASGSTFPRYAMGWYRQAPGKERELVASITSDGGSTYYADSVKGRFTISRDNAKNTVYLQMNSLKPEDTAVYYCNKVPYRGYRRYGYWGQGTQVTVSS	high polyreactivity
